Reference: paper PMC5421877, “SOCS3 inhibits the pathological effects of IL-22 in non-melanoma skin tumor-derived keratinocytes” (Oncotarget, 2017)

Columns and labels:
Format in all cases: cell-based, human
[1] = system: Erk1/2 phosphorylation in healthy keratinocytes; assay: Western blot of Erk1/2 phosphorylation in healthy keratinocytes (IL-22); conditions: IL-22 time course, no peptide, n = 3
Protocol: (§1) Figure 5 KIR-ESS peptide inhibits IL-22-induced phosphorylation of STAT3 and Erk in healthy and SCC-derived keratinocytes (A) Protein extracts obtained from healthy keratinocytes (n = 3) pre-treated or not with 15 μM (left panel) or 75 μM (right panel), KIR, KIR-ESS and control (Ctrl1 or Ctrl2) peptides, and, then, […], were subjected to WB analysis to detect STAT3 (Tyr705), Erk and MEK phosphorylation. Filters were probed with anti-STAT3, -Erk and –MEK Abs (top). (B) Protein extracts obtained from healthy keratinocytes (n = 3) pre-treated or not with 75 μM KIR-ESS and control (Ctrl1) peptides, and, then, stimulated or not with IL-22 for 10 min, were subjected to immunoprecipitation for IL-22R1 and Jak1, and then analysed by WB to detect phosphorylated and unphosphorylated forms of the proteins. (C) Unphosphorylated and phosphorylated forms of STAT1 (Tyr701) and STAT3 (Tyr705) were monitored in keratinocytes treated with IFN-γ for 15 min by WB analysis (bottom). In all experimental groups, filters were stripped and re-probed with β-actin Ab. (D) Protein extracts were obtained from CAL27 (left panel) or CAL33 (right panel) lines treated or not with 75 μM peptides in presence of IL-22 or IFN-γ. WB was performed to detect basal and phosphorylated STAT1, STAT3 and Erk. D.I. ratio indicates the densitometric intensity of phosphorylated/unphosphorylated target protein. […]

[2] = system: STAT3 phosphorylation in healthy keratinocytes; assay: Western blot of STAT3 phosphorylation in healthy keratinocytes (IL-22); conditions: IL-22 time course, no peptide, n = 3
Protocol: as §1

[3] = system: IL-22R1 phosphorylation; assay: IP/WB of IL-22R1 phosphorylation in healthy keratinocytes (IL-22); conditions: IL-22 10 min, no peptide, n = 3
Protocol: Figure 5 KIR-ESS peptide inhibits IL-22-induced phosphorylation of STAT3 and Erk in healthy and SCC-derived keratinocytes (A) Protein extracts obtained from healthy keratinocytes (n = 3) pre-treated or not with 15 μM (left panel) or 75 μM (right panel), KIR, KIR-ESS and control (Ctrl1 or Ctrl2) peptides, and, then, stimulated or not with IL-22 for 20 min, were subjected to WB analysis to detect STAT3 (Tyr705), Erk and MEK phosphorylation. Filters were probed with anti-STAT3, -Erk and –MEK Abs (top). (B) Protein extracts obtained from healthy keratinocytes (n = 3) pre-treated or not with 75 μM KIR-ESS and control (Ctrl1) peptides, and, then, stimulated or not with IL-22 for 10 min, were subjected to immunoprecipitation for IL-22R1 and Jak1, and then analysed by WB to detect phosphorylated and unphosphorylated forms of the proteins. (C) Unphosphorylated and phosphorylated forms of STAT1 (Tyr701) and STAT3 (Tyr705) were monitored in keratinocytes treated with IFN-γ for 15 min by WB analysis (bottom). In all experimental groups, filters were stripped and re-probed with β-actin Ab. (D) Protein extracts were obtained from CAL27 (left panel) or CAL33 (right panel) lines treated or not with 75 μM peptides in presence of IL-22 or IFN-γ. WB was performed to detect basal and phosphorylated STAT1, STAT3 and Erk. […]

B1: IL-22: cytokine stimulus, R&D Systems (protein, UniProt Q9GZX6 34-179, looked up)
Interleukin-22: APISSHCRLDKSNFQQPYITNRTFMLAKEASLADNNTDVRLIGEKLFHGVSMSERCYLMKQVLNFTLEEVLFPQSDRFQPYMQEVVPFLARLSNRLSTCHIEGDDLHIQRNVQKLKDTVKKLGESGEIKAIGELDLLFMSLRNACI
For B1, which Erk1/2 activation [1] is on record?
The Erk1/2 activation was “culminated with STAT3, MEK1/2 and Erk1/2 activation”.

And the STAT3 activation [2]?
Its STAT3 activation is “culminated with STAT3, MEK1/2 and Erk1/2 activation”.

And the IL-22R1 phosphorylation induced [3]?
Its IL-22R1 phosphorylation induced is “induced molecular cascade implicating phosphorylation of IL-22R1, Tyk2 and Jak1”.
